Among the data in patent publication US20020123623 are activity values, retold here.

The test system of this series is T1, Ntlim1 (effector plasmid, BY-2 protoplasts) (Nicotiana tabacum).
T1 sequence: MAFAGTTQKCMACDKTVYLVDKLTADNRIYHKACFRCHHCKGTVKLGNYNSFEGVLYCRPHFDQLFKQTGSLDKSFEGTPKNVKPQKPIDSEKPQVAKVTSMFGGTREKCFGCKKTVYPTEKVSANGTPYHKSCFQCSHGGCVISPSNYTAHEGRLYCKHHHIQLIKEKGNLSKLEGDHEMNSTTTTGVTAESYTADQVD
The experiment in a line: cell_activity. Conditions: about three times GUS expression vs reporter alone in tobacco BY-2 protoplasts; direct binding not measured.

Turning to CCACTTGAGTAC (double strand), the activity was 3 fold.
